In US20080234198A1 (Eli Lilly, published 2008):
Residue numbers refer to the chain shown, from its start.

T1: human VPAC2 receptor (human, UniProt P41587 24-438)
T1 construct: whole, on cells; CHO-S cell line stably expressing human VPAC2 (cAMP assays)
T1 sequence (looked up): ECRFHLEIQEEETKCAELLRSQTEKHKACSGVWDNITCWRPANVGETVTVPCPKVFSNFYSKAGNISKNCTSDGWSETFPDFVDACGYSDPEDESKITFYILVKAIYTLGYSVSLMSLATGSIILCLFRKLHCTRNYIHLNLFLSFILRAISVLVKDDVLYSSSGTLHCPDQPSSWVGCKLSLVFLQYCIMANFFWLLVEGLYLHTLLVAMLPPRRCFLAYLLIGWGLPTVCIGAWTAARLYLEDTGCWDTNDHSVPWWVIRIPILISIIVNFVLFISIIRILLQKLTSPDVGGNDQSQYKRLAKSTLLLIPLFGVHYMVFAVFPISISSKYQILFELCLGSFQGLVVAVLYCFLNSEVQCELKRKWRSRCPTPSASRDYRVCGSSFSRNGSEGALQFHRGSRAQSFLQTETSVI

T2: rat VPAC1 receptor (rat, UniProt P30083 31-459)
T2 sequence (looked up): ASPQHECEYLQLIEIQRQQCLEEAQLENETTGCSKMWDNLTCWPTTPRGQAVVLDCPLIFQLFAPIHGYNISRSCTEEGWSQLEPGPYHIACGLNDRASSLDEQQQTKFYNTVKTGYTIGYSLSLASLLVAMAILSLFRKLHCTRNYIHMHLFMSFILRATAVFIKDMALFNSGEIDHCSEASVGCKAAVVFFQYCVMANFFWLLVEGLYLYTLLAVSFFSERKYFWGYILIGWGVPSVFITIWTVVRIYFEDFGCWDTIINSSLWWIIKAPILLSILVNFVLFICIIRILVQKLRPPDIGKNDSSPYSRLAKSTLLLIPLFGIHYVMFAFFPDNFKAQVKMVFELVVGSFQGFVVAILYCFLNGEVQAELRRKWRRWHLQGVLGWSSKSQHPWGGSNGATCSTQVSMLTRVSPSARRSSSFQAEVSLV

T3: rat VPAC2 receptor (rat, UniProt P35000 23-437)
T3 sequence (looked up): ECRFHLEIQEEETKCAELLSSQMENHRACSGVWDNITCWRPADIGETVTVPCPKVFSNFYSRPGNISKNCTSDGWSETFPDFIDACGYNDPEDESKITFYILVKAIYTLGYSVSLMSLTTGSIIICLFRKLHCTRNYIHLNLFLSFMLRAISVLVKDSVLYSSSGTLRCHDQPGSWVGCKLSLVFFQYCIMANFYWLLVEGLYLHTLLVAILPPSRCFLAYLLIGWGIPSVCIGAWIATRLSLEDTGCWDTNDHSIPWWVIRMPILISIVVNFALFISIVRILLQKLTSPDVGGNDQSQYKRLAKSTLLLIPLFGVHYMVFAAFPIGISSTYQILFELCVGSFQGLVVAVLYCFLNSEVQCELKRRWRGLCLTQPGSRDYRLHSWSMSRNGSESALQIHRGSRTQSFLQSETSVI

B1: P470 (peptide)
peptide: HSDAVFTEQYTXXRXQVAAXXYLQSIXXGGPSSGAPPPS
modifications: C6-HSDAVFTEQY(OMe)TOrnK(CO(CH2)2SPEG20K)RAibQVAAAibOrnYLQSIOrnOrnGGPSSGAPPPS-NH2
B2: P492 (peptide)
peptide: B1 peptide with X13L, A19X, S39C
modifications: C6-HSDAVFTEQY(OMe)TOrnLRAibQVAK(CO(CH2)2SPEG20K)AibOrnYLQSIOrnOrnGGPSSGAPPPC(PEG20K)-NH2
B3: P497 (peptide)
peptide: B1 peptide with X13L, I26X, S39C
modifications: C6-HSDAVFTEQY(OMe)TOrnLRAibQVAAAibOrnYLQSK(CO(CH2)2SPEG20K)OrnOrnGGPSSGAPPPC(PEG20K)-NH2
B4: P454 (peptide)
peptide: HSDAVFTEQYTXLRXQVAAXXYLQSIXXXGGPSSGAPPPS
modifications: not fully specified; C6-HSDAVFTEQY(OMe)TOrnLRAibQVAAAibOrnYLQSIOrnK(WPEG40K)OrnGGPSSGAPPPS-NH2
B5: P499 (peptide)
peptide: B4 peptide with S40C
modifications: C6-HSDAVFTEQY(OMe)TOrnLRAibQVAAAibOrnYLQSIOrnK(CO(CH2)2SPEG20K)OrnGGPSSGAPPPC(PEG20K)-NH2
B6: P505 (peptide)
peptide: B4 peptide with X28C, S40C
modifications: C6-HSDAVFTEQY(OMe)TOrnLRAibQVAAAibOrnYLQSIOrnC(PEG20K)OrnGGPSSGAPPPC(PEG20K)-NH2

Experiments:
[1] = target: T1, human VPAC2 receptor; assay: filter binding, VPAC2 cell membranes, displacement of 125I-VIP
Procedure: Binding assays: Membrane prepared from a stable VPAC2 cell line (see Example 3) or from cells transiently transfected with human VPAC1 or PAC1 are used.
The assay plate is filled with 25 μL assay buffer, 25 μL membranes (2.5 μg) suspended in assay buffer, 25 μL agonist in assay buffer, and 25 μL tracer (about 40000 cpm) in assay buffer. The filled plate is incubated for 1 hour with shaking.
The transfer from assay plate to filter plate is conducted. The blocking buffer is aspirated by vacuum filtration and washed two times with flush buffer. 90 μL is transferred from the assay plate to the filter plate. The 90 μL transferred from assay plate is aspirated and washed three times with 200 μL flush buffer. The plastic support is removed. It is dried for 1 hour at 60° C. 30 μL Microscint is added. The count is performed.

[2] = target: T2, rat VPAC1 receptor; assay: cell-based or functional assay
[3] = target: T3, rat VPAC2 receptor; assay: cell-based or functional assay
[4] = target: T1, human VPAC2 receptor; assay: cell-based or functional assay

Row | Binder | IC50 [1] | Rat VPAC1 Receptor: DiscoveRx: (EC50; nM) [2] | Rat VPAC2 Receptor: DiscoveRx: (EC50; nM) [3] | Human VPAC2 Receptor: Alphascreen (EC50; nM) [4] | Human VPAC2 Receptor: DiscoveRx (EC50; nM) [4]
1 | B1 | 263 nM | > 1000 nM | 111 nM | 83.3 nM | –
2 | B2 | 156 nM | > 4000 nM | 963 nM | 510 nM | –
3 | HSDAVFTEQYTXLRXQLAXXXYLQSCXXGGPSSGAPPPS (C6-HSDAVFTEQY(OMe)TOrnLRAibQLAAbuAibOrnYLQSC(PEG40K)OrnOrnGGPSSGAPPPS-NH2) [P543] | 56.3 nM | 355 nM | 101 nM | 84.2 nM | 8.9 nM
4 | B3 | 146 nM | > 1000 nM | 345 nM | 176 nM | –
5 | HSDAVFTEQYTXLRXQVAAXXYLQSXXXGGPSSGAPPPS (C6-HSDAVFTEQY(OMe)TOrnLRAibQVAAAibOrnYLQSK(WPEG40K)OrnOrnGGPSSGAPPPS-NH2) [P535] | 145 nM | > 1000 nM | 318 nM | 98.4 nM | –
6 | B4 | 36.6 nM | 1230 nM | 79.6 nM | 59.9 nM | –
7 | B5 | 34 nM | 804 nM | 68.2 nM | 57.7 nM | –
8 | HSDAVFTEQYTXLRXQVAAXXYLQSIXXGGPSSGAPPPS (C6-HSDAVFTEQY(OMe)TOrnLRAibQVAAAibK(W-PEG40K)YLQSIOrnOrnGGPSSGAPPPS-NH2) [P410] | 264 nM | > 1000 nM | 318 nM | 129 nM | –
9 | HSDAVFTEQYTXLRXQVCAXXYLQSIXXGGPSSGAPPPS (C6-HSDAVFTEQY(OMe)TOrnLRAibQVC(PEG40K)AAibOrnYLQSIOrnOrnGGPSSGAPPPS-NH2) [P478] | 30 nM | 2050 nM | 120 nM | 49.9 nM | –
10 | HSDAVFTEQYTXLRXQVAAXXYLCSIXXGGPSSGAPPPC (C6-HSDAVFTEQY(OMe)TOrnLRAibQVAAAibOrnYLC(PEG20K)SIOrnOrnGGPSSGAPPPC(PEG20K)-NH2) [P501] | 111 nM | > 1000 nM | 272 nM | 131 nM | –
11 | HSDAVFTEQYTXLRXQVAAXXYLQSCXXGGPSSGAPPPC (C6-HSDAVFTEQY(OMe)TOrnLRAibQVAAAibOrnYLQSC(PEG20K)OrnOrnGGPSSGAPPPC(PEG20K)-NH2) [P503] | 41.5 nM | > 4000 nM | 520 nM | 147 nM | –
12 | B6 | 26.1 nM | 639 nM | 42.6 nM | 40.5 nM | –
13 | HSDAVFTEQYTXLRXQVAAXXYLQXIXXGGPSSGAPPPC (C6-HSDAVFTEQY(OMe)TOrnLRAibQVAAAibOrnYLQAibIOrnOrnGGPSSGAPPPC(PEG40K)-NH2) [P509] | 11.2 nM | 328 nM | 28.2 nM | 13 nM | –
